# Assay results from patent US20250179180A1 (TENEOBIO, published 2025).
# Changes are numbered by the printed parent chain. In names and notes the source's numbering stands.
# B1: mAb CD3 F2B (antibody, V domains shown)
# VH: EVQLVESGGGLVQPGRSLRLSCAASGFTFDDYAMHWVRQAPGKGLEWVSGISWNSGSIGYADSVKGRFTISRDNAKNSLYLQMNSLRAEDTALYYCAKDSRGYGDYRLGGAYWGQGTLVTVSS
# VL: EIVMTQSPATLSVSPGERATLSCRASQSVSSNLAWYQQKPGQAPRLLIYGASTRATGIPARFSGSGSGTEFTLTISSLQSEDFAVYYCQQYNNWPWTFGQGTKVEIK
# notes: also called F2B antibody; mAb F2B
# B2: SEQ ID NO 5 (antibody, V domains shown)
# VH: B1 VH with R107S
# VL: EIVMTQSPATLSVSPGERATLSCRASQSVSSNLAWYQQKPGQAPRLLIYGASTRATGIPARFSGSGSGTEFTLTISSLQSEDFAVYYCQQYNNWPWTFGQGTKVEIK
# notes: also called family 2 anti-CD3 FlicAb
# B3: SEQ ID NO 12 (antibody, V domains shown)
# VH: B1 VH with A88P, D105S, R107S, L108R
# VL: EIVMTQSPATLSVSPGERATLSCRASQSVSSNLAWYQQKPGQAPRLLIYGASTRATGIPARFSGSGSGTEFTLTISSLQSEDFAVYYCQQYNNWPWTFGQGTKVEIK
# notes: as for B2
# B4: SEQ ID NO 13 (antibody, V domains shown)
# VH: B1 VH with D30H, D31N, R107S
# VL: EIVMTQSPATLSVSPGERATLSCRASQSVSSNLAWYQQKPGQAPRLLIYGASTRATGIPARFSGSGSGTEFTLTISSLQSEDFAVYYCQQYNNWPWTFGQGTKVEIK
# notes: as for B2
# B5: SEQ ID NO 10 (antibody, V domains shown)
# VH: B1 VH with D31N, R107S, L108R
# VL: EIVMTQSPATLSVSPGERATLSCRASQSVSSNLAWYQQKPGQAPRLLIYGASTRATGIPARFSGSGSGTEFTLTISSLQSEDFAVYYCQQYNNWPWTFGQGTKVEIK
# notes: as for B2
# B6: SEQ ID NO 2 (antibody, V domains shown)
# VH: B1 VH with Q13K, R16G
# VL: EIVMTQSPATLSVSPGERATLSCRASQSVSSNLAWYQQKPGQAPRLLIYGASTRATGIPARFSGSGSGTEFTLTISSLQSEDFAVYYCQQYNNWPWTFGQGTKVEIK
# notes: as for B2
# B7: SEQ ID NO 17 (antibody, V domains shown)
# VH: B1 VH with A23E
# VL: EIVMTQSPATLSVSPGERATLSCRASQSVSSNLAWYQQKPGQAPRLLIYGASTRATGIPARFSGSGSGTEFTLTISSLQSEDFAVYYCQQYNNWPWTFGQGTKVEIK
# notes: as for B2
# B8: SEQ ID NO 9 (antibody, V domains shown)
# VH: B1 VH with D31N, N77K, R107S, L108R
# VL: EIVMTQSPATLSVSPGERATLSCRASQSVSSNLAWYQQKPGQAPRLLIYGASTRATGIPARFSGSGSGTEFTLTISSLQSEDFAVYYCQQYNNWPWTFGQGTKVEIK
# notes: as for B2
# B9: SEQ ID NO 4 (antibody, V domains shown)
# VH: B1 VH with A88P, R107S
# VL: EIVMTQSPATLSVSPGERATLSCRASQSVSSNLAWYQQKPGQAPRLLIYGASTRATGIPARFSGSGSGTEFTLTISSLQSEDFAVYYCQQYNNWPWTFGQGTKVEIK
# notes: as for B2
# B10: SEQ ID NO 7 (antibody, V domains shown)
# VH: B1 VH with D30N, D31N, A88G, R107S, L108R
# VL: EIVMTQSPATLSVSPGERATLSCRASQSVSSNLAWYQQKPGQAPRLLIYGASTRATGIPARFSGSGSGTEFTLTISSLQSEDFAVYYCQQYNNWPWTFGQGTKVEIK
# notes: as for B2
# B11: SEQ ID NO 8 (antibody, V domains shown)
# VH: B1 VH with R16G, D30A, R107S, L108R
# VL: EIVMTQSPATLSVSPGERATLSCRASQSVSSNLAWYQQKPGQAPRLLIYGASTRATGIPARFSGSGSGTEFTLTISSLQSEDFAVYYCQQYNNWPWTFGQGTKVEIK
# notes: as for B2
# B12: SEQ ID NO 16 (antibody, V domains shown)
# VH: B1 VH with N77K
# VL: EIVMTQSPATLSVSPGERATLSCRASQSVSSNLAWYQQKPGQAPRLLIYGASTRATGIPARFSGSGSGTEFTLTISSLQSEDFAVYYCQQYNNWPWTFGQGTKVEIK
# notes: as for B2
# B13: SEQ ID NO 3 (antibody, V domains shown)
# VH: B1 VH with N77K, R107S, L108R
# VL: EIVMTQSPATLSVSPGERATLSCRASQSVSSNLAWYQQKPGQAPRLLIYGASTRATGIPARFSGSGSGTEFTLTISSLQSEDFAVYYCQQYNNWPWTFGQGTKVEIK
# notes: as for B2
# B14: SEQ ID NO 15 (antibody, V domains shown)
# VH: B1 VH with D31N, N77K, R107S
# VL: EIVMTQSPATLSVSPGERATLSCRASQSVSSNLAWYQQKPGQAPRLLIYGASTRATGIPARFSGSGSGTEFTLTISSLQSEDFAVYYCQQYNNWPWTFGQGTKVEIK
# notes: as for B2
# B15: SEQ ID NO 6 (antibody, V domains shown)
# VH: B1 VH with D30A, D31N, G59D, R107S, L108R
# VL: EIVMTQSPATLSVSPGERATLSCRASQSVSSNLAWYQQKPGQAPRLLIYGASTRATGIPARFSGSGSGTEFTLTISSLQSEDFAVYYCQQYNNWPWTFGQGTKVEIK
# notes: as for B2
# B16: SEQ ID NO 18 (antibody, V domains shown)
# VH: B1 VH with A88P
# VL: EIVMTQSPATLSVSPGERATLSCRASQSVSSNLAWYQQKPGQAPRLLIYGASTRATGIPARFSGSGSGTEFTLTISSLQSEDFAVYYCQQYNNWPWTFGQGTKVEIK
# notes: as for B2
# B17: SEQ ID NO 11 (antibody, V domains shown)
# VH: B1 VH with R107S, L108R
# VL: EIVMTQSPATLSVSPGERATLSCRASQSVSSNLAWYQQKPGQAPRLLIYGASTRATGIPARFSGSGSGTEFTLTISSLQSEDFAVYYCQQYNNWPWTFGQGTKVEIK
# notes: as for B2
# Biological target: T1, human CD3 (human, UniProt P07766 23-207; P04234 22-171)
# T1 construct: also called CD3 on human T cells
# Experiment: flow cytometry on primary human T cells
# T1 sequence (P07766 23-207 limits assumed, chain 1 of 2): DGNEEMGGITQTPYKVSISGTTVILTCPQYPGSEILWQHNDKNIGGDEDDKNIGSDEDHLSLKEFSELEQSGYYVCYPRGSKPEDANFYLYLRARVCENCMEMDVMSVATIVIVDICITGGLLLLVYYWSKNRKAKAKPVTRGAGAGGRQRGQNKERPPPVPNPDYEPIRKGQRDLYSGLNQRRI
# T1 sequence (P04234 22-171 limits assumed, chain 2 of 2): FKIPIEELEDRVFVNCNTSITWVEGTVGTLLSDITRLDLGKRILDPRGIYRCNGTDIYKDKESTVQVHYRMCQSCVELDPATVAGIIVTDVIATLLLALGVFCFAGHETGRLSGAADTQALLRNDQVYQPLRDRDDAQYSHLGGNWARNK
row,binding result,Binder
1,binds,B1
2,binds,B2
3,binds,B3
4,binds,B4
5,binds,B5
6,binds,B6
7,binds,B7
8,binds,B8
9,binds,B9
10,binds,B10
11,binds,B11
12,binds,B12
13,binds,B13
14,binds,B14
15,binds,B15
16,binds,B16
17,binds,B17
